Ends that are not written are not given here.

Assay [1] addresses serpin enzyme complex receptor (SEC-R) on human hepatoma cell lines (human). In words: fluorescence microscopy of HepG2(low) cells with 100 nM fluorescein labeled peptide at 4 C; cells per 100 counted.
Assay [2] has the same target. Put plainly: fluorescence microscopy of HuH7 cells with 100 nM fluorescein labeled peptide at 4 C; cells per 100 counted.
The target is the same in assay [3]. In words: fluorescence microscopy of HepG2(high) cells with 100 nM fluorescein labeled peptide at 4 C; cells per 100 counted.
Assay [4] has the same target. In words: 125I-C105Y saturation binding on HuH7 cells, Scatchard analysis.
For assay [5] the target is unchanged. Put plainly: 125I-C105Y specific binding on cells.
The target is the same in assay [6]. Put plainly: 125I-C105Y saturation binding on HepG2 (low) cells, Scatchard analysis.
Assay [7] has the same target. In words: 125I-C105Y saturation binding on HepG2 (high) cells, Scatchard analysis.

B1: fluorescein labeled C1315 peptide (peptide)
peptide: CFLEAIPMSIPPEVKFNKPFVFLIIHRD
modifications: also: labelled with fluorescein isothiocyanate, site not given here
On to B1, for which the Average % Fluorescent Cells in assay [1] worked out at 1.8%; in assay [2] it was 14.3%; in assay [3], 20.4%.

B2: Peptide C105Y (peptide)
peptide: CSIPPEVKFNKPFVYLI
modifications: also: radio-iodinated with 125I, site not given here
For B2, the Kd in assay [4] stood at 70 nM; in assay [6], 22.5 nM; in assay [7], 50 nM. In assay [5], the fold less specific binding, HepG2 (low) against HepG2 (high) stood at 7.5 fold. Further, in assay [5], the fold less specific binding, HepG2 (low) against HuH7 worked out at 10 fold. The molecule further registered a fold more C105Y bound, HuH7 against HepG2 (high) in assay [5] of 1.5 fold.

(Values after EP2025757A2.)
